Columns and labels:
[1] = molecular target: L19-UG-TNFRII (human) (UniProt P20333); experiment: SEC; Superdex 200 (S200) FPLC of purified L19-UG-TNFRII in native conditions
[2] = molecular target: L19-UG-TNFRII (human) (UniProt P20333); experiment: SDS-PAGE, non-reducing; SDS-PAGE 4%-12% of purified L19-UG-TNFRII under non-reducing conditions

stoichiometry N [1]: 2
stoichiometry N [2]: 2
Substance: L19-UG-TNFRII (from UniProt P20333 23-257)
